For the test, the system named is hippocampal proteins. Put plainly: DIA quantification proteomics, hippocampus of Mdga2+/- vs WT mice. The arrangement: species or system mouse. The conditions noted are these: S3 Table, downregulated DEPs; for log2FC: Mdga2+/- vs WT mouse hippocampus (HET-HIP-VS-WT-HIP), SE, pvalue and adj_pvalue in own columns c3-c5; for Class: regulation class of the protein, HET-HIP-VS-WT-HIP. How it is done:
The hippocampus of 1.5–2-month-old Mdga2^ +/− male mice and their WT littermate controls was collected and sent to the BGI company for DIA quantification proteomics and data analysis. Briefly, samples were lysed and sonicated. After centrifugation, the supernatant was taken for quantification. Equal amounts of proteins (100 μg) per sample were subjected to trypsin enzymatic hydrolysis. After dryness, 10 μg enzymatic peptides per sample were separated by high-pH fractionation into a total of 10 fractions using high-performance liquid chromatography (HPLC) and freeze-dried. Data-dependent acquisition (DDA) fractions and DIA samples were analyzed by nano-LC–MS/MS. DDA data was identified by Andromeda search engine within MaxQuant. Identified results were used by Spectronaut^TM for spectral library construction. For DIA data, Spectronaut^TM used the constructed spectral library information to complete deconvolution and extraction, and used the mProphet algorithm to complete analytical quality control for obtaining reliable quantitative results. The mass spectrometry proteomics data have been deposited to the ProteomeXchange Consortium via the PRIDE [62] partner repository with the dataset identifier PXD050810. DEPs between comparison groups were identified based on the quantitative results, using the fold change >1.1 and p-value <0.05 as the criteria. After retrieval from the UniProtKB database, identified DEPs were processed for GO analysis by using DAVID (https://david.ncifcrf.gov/home.jsp) and Metascape database (https://metascape.org/gp/index.html).

B1: sp¦Q6A0D4¦RFTN1_MOUSE (protein, UniProt Q6A0D4 2-554, looked up)
Raftlin: GCSLNKLEKREEKRPGNIYSTLKRPQVETKVDVTYEYCFLEFTTLTAAELPRSSATRLASLRDLPDQLLELYQQGFSLAALHPFVQPTRRQEKILLEHIFRAILVKKTNRSQKAELHDEGYTLELDYCSSLEHLADQKLIPEFIKKVQEAASQGLKFVSVVPQYQPSVSSAGSRRLKPVANSVEDARDVKCTLGDRSSLENDTPKAAETDAATAGVNRRPETKPGSTGDVPSAQQPGIPSPSAENEAGEFPLRGLQPALDRSEGDPSNGPEELPSRKMEIFAFFNRPKSQQKCRQYYPVTIPLQVSKNGQTVSSLDASWLEHMSDHFRKGGVLVNAVFQLGMANDSFYGLTDGVFIFEAVSTEDNRTTQGYDAIVVEQWTVLEGTEVQTDYMPLLNSLAAYGWQLTCVLPTPILKTTREGNVSTKQIVFLQRPCLPQKTKKRESKFQWRFSRNEIHGRQTRKSKGKLSASNKQQAEENEKNLEDQFSKAGDVGNCVLGAPQWGRASEVREQRQGSAAVQNGPAGHNRDSVALRHSNPRAEAELAAGPTPTEAN
On to B1, for which the log2FC is -1.516 and the Class result is “Down”.

B2: sp¦P43135¦COT2_MOUSE (protein, UniProt P43135 1-414, looked up)
COUP transcription factor 2: MAMVVSTWRDPQDEVPGSQGSQASQAPPVPGPPPGAPHTPQTPGQGGPASTPAQTAAGGQGGPGGPGSDKQQQQQHIECVVCGDKSSGKHYGQFTCEGCKSFFKRSVRRNLSYTCRANRNCPIDQHHRNQCQYCRLKKCLKVGMRREAVQRGRMPPTQPTHGQFALTNGDPLNCHSYLSGYISLLLRAEPYPTSRFGSQCMQPNNIMGIENICELAARMLFSAVEWARNIPFFPDLQITDQVALLRLTWSELFVLNAAQCSMPLHVAPLLAAAGLHASPMSADRVVAFMDHIRIFQEQVEKLKALHVDSAEYSCLKAIVLFTSDACGLSDVAHVESLQEKSQCALEEYVRSQYPNQPTRFGKLLLRLPSLRTVSSSVIEQLFFVRLVGKTPIETLIRDMLLSGSSFNWPYMAIQ
For the molecule B2, the log2FC is -1.636 and the Class result was “Down”.

B3: sp¦Q9D7X1¦KCTD4_MOUSE (protein, UniProt Q9D7X1 1-259, looked up)
BTB/POZ domain-containing …: MERKIIRREKEREYEGRHNSVEDAEQGKNCKSTLMTLNVGGYLYITQKQTLTKYPDTFLEGIVNGKILCPFDADGHYFIDRDGLLFRHVLNFLRNGELLLPEGFRENQLLAQEAEFFQLKGLAEEVKSRWEKEQLTPRETTFLEITDNHDRSQGLRIFCNAPDFISKIKSRIVLVSKSRLDGFPEEFSVSSNIIQFKYFIKSENGTRLVLKEDNTFVCTLETLKFEAIMMALKCGFRLLTSLDCSKGSIVHSDALHFIK
Consider B3, for which the log2FC is recorded as -1.758 and the Class result was “Down”.

B4: sp¦Q3TVI8¦PBIP1_MOUSE (protein, UniProt Q3TVI8 1-727, looked up)
Pre-B-cell leukemia …: MASCPDSDNSWVLAGSENLPVETLGPEPRMDPESEGASQALRDSSKADGKELAGTLDGEEKLFQTESSQRETAVLTESAAKGTLGADGHGTEAPGDTVVQEDSQETPVATSLGPDTQDLESEIHPQNLPSSPRAVWKEHRCSSSDDDTDVDVEGLRRRRGREPSSSQPVVPVDVEDQAKGEGIGGELGISLNMCFLGALVLLGLGILLFSGTLLEPETGPMEEAELQVFPETGPETELVETLGNRQDEIEHLQASSVPPDSVPSLQSMGFLLDKLAKENQDIRLLQAQLQAQKEELQSLLHQPKGLEEENARLREALQQGKTSHQALESELQQLRARLQGLEANCVRGVDGVCLNWGGDPQDGKATKEQGHKGQEPDPSLLEQHKQLEAEAKALRQELQRQWQLLGSVHWDLQRGLRDAGRGAPAHPGLAELGHMLAQTLQDLENQGINTGRSPNDSEAWHQKKPHTQSPREWGGKEKWRGGQRDQKAEHWKPRKEESGQERQRSWRDEGREHTGRWREDRLRADESGSRKDSKRQDPKVHPRKDGNSHSVERQKHSWGKDNSPDALSSWEELLRRKYRPPQGCSGVADCARQEGLALFGVELAPVRQQELASVLREYLSRLPWAGQLTKQLPLSPAYFGEDGIFRHDRLRFRDFVDALEDSLEEVALKQTGDDDEVDDFEDFVFGHFFGDKALKKRSRKKEKHSWNPRVVGPREEHSRHPHHYHQG
Take B4: the log2FC is reported as -1.692 and the Class entry is recorded as “Down”.

B5: sp¦P48381¦RFX3_MOUSE (protein, UniProt P48381 1-749, looked up)
Transcription factor RFX3: MQTSETGSDTGSTVTLQTSVASQAAVPTQVVQQVPVQQQVQQVQTVQQVQHVYPAQVQYVEGSDTVYTNGAIRTTTYPYTETQMYSQNTGGNYFDTQGSSAQVTTVVSSHSMVGTGGIQMGVTGGQLISSSGGTYLIGNSMENSGHSVTHTTRASPATIEMAIETLQKSDGLSTHRSSLLNSHLQWLLDNYETAEGVSLPRSTLYNHYLRHCQEHKLDPVNAASFGKLIRSIFMGLRTRRLGTRGNSKYHYYGIRVKPDSPLNRLQEDMQYMAMRQQPMQQKQRYKPMQKVDGVADGFTGSGQQTGTSVEQTVIAQSQHHQQFLDASRALPEFGEVEISSLPDGTTFEDIKSLQSLYREHCEAILDVVVNLQFSLIEKLWQTFWRYSPSTPADGTTITESSNLSEIESRLPKAKLITLCKHESILKWMCNCDHGMYQALVEILIPDVLRPIPSALTQAIRNFAKSLEGWLSNAMNNIPQRMIQTKVAAVSAFAQTLRRYTSLNHLAQAARAVLQNTSQINQMLSDLNRVDFANVQEQASWVCQCDDNMVQRLETDFKMTLQQQSTLEQWAAWLDNVMMQALKPYEGRPSFPKAARQFLLKWSFYSSMVIRDLTLRSAASFGSFHLIRLLYDEYMFYLVEHRVAQVTGETPIAVMGEFGDLNAVSPGNLDKDEGSEVESETDEDLDDSSEPRAKREKTELSQAFPVGCMQPVLESAVQPSLLNPLHSEHIVTSTQTIRQCSATGNTYTAV
For B5, the log2FC was -1.5061 and the Class result is reported as “Down”.

B6: sp¦Q8BZ60¦STON2_MOUSE (protein, UniProt Q8BZ60 1-895, looked up)
Stonin-2: MTTLDHVIATHQSEWVSFSEEPLFPTPLEGGTEEHFPGLSSSSERSESSSGENHVVDEGSQDLSHSEQDDSSEKMGLISEAASPPGSPVQPTPDLASAISNWVQFEDDTPWSSTSPPHKETALTLTMPCWTCPSFDSLRRCPLTSESSWTTHSEDTSSPSVAPSYTDLQLINTEEQASGRASGTDSTDNSSSLQEDEEVEMEAISWWAGSPAMNGHPAAPPVTTARFPSWVTFEDNEVGCPSPPVPSPKKPNTPSAATAAPDVPFNSTGSFKRDRPKSTLMNLPKVQKLDISSLNRPPSVIEAPPWRATNPFLNETLQDVQPSPINPFSAFFEEQERRSQNSSVSSTTGKSQRDSLIVVYQDAISFDDSGKSQPHPDAIEKLKQLQIDDPDPVGNTALPDDDPTASVELDAPSPASALSQPRDGWPMMLRIPEKKNIMSSRHWGPIYIKLTASGYLQLYYEQGLEKPFREFKLEICHEVSEPRLQNYDENGRIHSLRIDRVTYKEKKKYQPKPAVAHAAEREQVIKLGTTNYDDFRSFIHAVQDRLMDLPVLSMDLSTVGLNYLEEEITVDVRDEFSGTVGKGDNQILQHHVLTRIHILSFLSGLAECRLGLNDILIKGNEIVSRQDIMPTTTTKWIKLHECRFHGCVDEDVFNSSRVILFNPLDACRFELMRFRTVFAEKTLPFTLRTAASINGAEVEVQSWLRMSPGFSSNRDPLTQVPCENVMVRYPVPSEWVKNFRRDSVLGEKSLKAKVNRGASFGSAGASGSEPVMRVTLGTAKYEHAFNSIVWRINRLPDKNSASGHPHCFFCHLELGSDREVPSRFANYVNVEFSMPTTSASKAAVRSVSVEDKPDVRKWVNYSAHYSYKVEIEQKKSLKPDFEGEDLENPKECGVQ
As for B6, the log2FC was -1.549 and the Class entry is “Down”.

B7: sp¦P50172¦DHI1_MOUSE (protein, UniProt P50172 1-292, looked up)
11-beta-hydroxysteroid …: MAVMKNYLLPILVLFLAYYYYSTNEEFRPEMLQGKKVIVTGASKGIGREMAYHLSKMGAHVVLTARSEEGLQKVVSRCLELGAASAHYIAGTMEDMTFAEQFIVKAGKLMGGLDMLILNHITQTSLSLFHDDIHSVRRVMEVNFLSYVVMSTAALPMLKQSNGSIAVISSLAGKMTQPMIAPYSASKFALDGFFSTIRTELYITKVNVSITLCVLGLIDTETAMKEISGIINAQASPKEECALEIIKGTALRKSEVYYDKSPLTPILLGNPGRKIMEFFSLRYYNKDMFVSN
Consider B7, for which the log2FC is on record as -1.766 and the Class result is listed as “Down”.

B8: sp¦Q8C5W0¦CLMN_MOUSE (protein, UniProt Q8C5W0 1-1052, looked up)
Calmin: MAAQEWDWFQREELIGQISDIRVQNLQVERENVQKRTFTRWINLHLEKCDPPLEVTDLFVDIQDGKILMALLEVLSGRNLLHEYKSSSHRIFRLNNIAKALKFLEDSNVKLVSIDAAEIADGNPSLVLGLIWNIILFFQIKELTGNLSRSSPSSSLSPGSGGTDSDSSYPPTPTTERSVAVAVKDQRKAIKTLLSWVQRKTRKYGVAVQDFAGSWRSGLAFLAVIKAIDPSLVDMKQALEDSTRDNLEKAFSIAHDSLHIPRLLEPEDIMVDMPDEQSIVTYVAQFLERFPELEPEDFVNPDKEAPIESTFVRIKESPSEQGSRVLLLSENGERAYTVNQETSYPPPDKVFVCDQLESPTGFCLDSAPSHKLSDSSTEFMHEIIDQVLQGSTGKTGSIAEPTPESSILSTRKDGRRSNSLPVKKTVHFEADLHKDASCSKDPFYSSDFRFEGSPKATKELSKQDGHVSLAEVSKEKKKSEQEARLVLEAASDKVPESTVDGLDAVPQDAQPSQDSSFCNGTVESPSSQGEKGPPPSSPGDHTLLANSTELKVQLLTVEPMDKEDYFECIPLKASKFNRDLVDFASTSQAFGEDPSSHEKTRGEEEGSENHAEKPGKRKSKSPRAETEAAESRLEPKKLEPPPKDPEQEDQGHALPPETPADKKPKVYEKAKRKSTRHHSEEEGEAESGFSAVCEEEIPSAPPSTSVSLETLRSHSEEGLDFKPSPPLSKISVIPHDLFYYPHYEVPLAAVLEAYAEGGEDLKSEDTDLEHPEDSYLQDSREEEADEDEEEAQSSQSSCSFSLPVDNSYPSVSEHVSHVDGSSEGPTSALGPGSPPSHEDHQPKETKENGPVESQQSQEPPNPELPTKPLEEKLTEASTSSKKKEKRKHMDHVESSLFIAPGTVRSSDDLEENSSEHKVPSRNSHSDSSIYIRRHTNRSLELDHFSYVQLRNAADLDDRRNRVLNRYNSQKLTELILQFYGIRADMKREYKHARLSMTGTNSSGEAVPLGNQSPPNDSLTQFVQQPDVIYFILFLWLLVYCLLLFPQLDVSRL
With B8, the log2FC is listed as -1.505 and the Class entry is listed as “Down”.

Source of the values: publication PMC11960969, “Mdga2 deficiency leads to an aberrant activation of BDNF/TrkB signaling that underlies autism-relevant synaptic and behavioral changes in mice” (PLOS Biology, 2025).
